Source: the nanobody polyreactivity screen of Harvey et al. (2022)

Experiment: yeast display, Sf9 membrane polyspecificity reagent, FACS + sequencing; frameworks hold sequencing errors
Outline: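 Galactose induction of a Saccharomyces cerevisiae BJ5465 synthetic nanobody display library ran 36–48 hours. The cells were then stained for 1 hour at 4 °C with 10% biotinylated, detergent-solubilized Sf9 membrane reagent, pulled down on streptavidin microbeads and FACS-sorted into low and high (top ~1%) gates on expression and reagent-binding fluorescence. Labels for polyreactivity follow the gate of origin.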

| Sequence | polyreactivity (PSR sort gate) |
| --- | --- |
| QVQLVESGGGLVQAGGSLRLSCAASGFIFAWYAMGWYRQAPGKERELVADITSGGDTSYADSVKGRFTISRDNAKNTVYLQMNSLKPEDTAVYYCARDVYIWYGYGYFPEYEYWGQGTQVTVSS | low polyreactivity |
| QVQLVESGGGLVQAGRSLRLSCAASGRIFCYYAMGWYRQAPGKERELVAAITRGGSTYYADSVKGRFTISRDNAKNTVYLQMNSLKPEDTAVYYCAATISGLVKYENDYWGQGTQVTVSS | low polyreactivity |
| QVQLVESGGGLVQAGGSLRLSCAASGRTFTYNMGWYRQAPGKERELVAANDLRRLCEGALHNFTRQCDEYRLFTDEQPETGRYPVYYCNADPAWIWYTFDYWGQGTQVTVSS | low polyreactivity |
| PVQLVESGGGLVQAGGSLSLTCAASGFIFYDYAMRWYRPAPGKERELVAGITSSGTSTYYADSVKGRFTISRDNAKNTVYLQMNSLKPEDTSVYYFNKAPSWWDVRVPFDYWGQGTQVTVSS | low polyreactivity |
| QVQLVESGGGLVQAVGSLRLSCAASGSTFRGYTMGWYRQEPGKERELVSAINWSGGDTYYADSVKGRFTISRDNAKNTVYLQMNSLKPEDTAVYYCNTRHTYPQSFILRRDYWGQGTQVTVSS | low polyreactivity |
| QVQLVESGGGLVQAGGSLRLSCAASGFTFNRYAMGWYRQAPGKERELVAAIRSRGGSTYYADSVKGRFTISRDNAKNTVYLQMNSLKPEDTAVYYCAARSFQFYRFDYWGQGTQVTVSS | high polyreactivity |
| QDQLVESGGGLVQAGGSLRLSCAASGSTFRHYAMGWYRQAPGQESELVAAISSRGGRTYYADSVKGRFTISRDNAKNTVYFQMNSLKPEDTAVYYCAADRFRLYVGGWWYDYWGLGTQVTVSS | high polyreactivity |
| LVQLVESGGGLVQAGGSLRLSCAASGSTSRKYTMGWYRQSPGKERELVARITSSGSSTYYADSVKGRFTISRDTAKNTVYLQMNSLKAEDTADYYCNARAHSDRKSSYIYLPYSYDYWGQGTQVTVSS | high polyreactivity |
| QVQLVESGGGLVQAGGSLRLSCAASGFIFFTYAMGWYRQAPGKVRELVAAITSRGGRTYYADSVKGRFTISRDNAKNTVYLQMNILKPEDTAVYYCAVDPVRRYRYDYWGQGTQVTVSS | low polyreactivity |
| QVQLVESGGGLVQAGGSLRLSCAASGSIFGLYVMGWDRQAPGKERELVATITSGGSTYYADSVKGRFTISRDNAKNTVYLQMNSLKPEDTAVYYCAADPQDAAYLKYLFYDYDYWGQGTQVTVSS | low polyreactivity |
| QVQLVESGGCLVQAGGSLRLSCAASGITFKYYVMGWYRQAPGKEREFVAAISWGGGSPYYADSVKGRCTISRDNAKNTVYVQMNSLKPEDTAVYYCAATSAYGRYRYYYWGQGTQVTVSS | high polyreactivity |
| QVQLVESGGGLVQAGGSLRLSCAASGRTFYYYSMGWYIQAPGKEREFVAAISYRGGSTYYADSVKGRFTITRDNAKNTVYFQMNSLNPEDTAVYYCAAGLVYLFISHNDYWGQGTQVTVSS | low polyreactivity |
| QDQLVESGGGLVQAGGSLRLSCAASGRIFAGYTMGWSRQAPGKERELVAAISWSGGRTYYADSVKGRFTISRDNAKNTVYLQMNSLKPEDTAVYYCNIVGWYHNYYYWGQGTQVTVSS | high polyreactivity |
| QVQLQESVGGLVQAGGSLRLSCAASGYISSWYPMGWYRQAPGKEREFVATIAPVATTYYADSVKGRFTISRDYAKNSVYLQMNSLKPEDTAVYYCAAGPENNDFYSYWGQGTQVTVSS | low polyreactivity |
| QVQLVESGGGLVQAGGSLRLSCAASGFTFNFYAMGWYRQAPGKESELVASITSSGARTYYADSVKGRFTISSDNPKNTVYLQMNSLKPEDTAVYYCAARVYRYSASRAYDYWGQGTQVTVSS | high polyreactivity |
| QVQLVVSGGGLVQAGGSLRLSCAASGRIFRAYAMGWYRQAPGQERELVADITSGSGSTYYADSVKGRFTISRDNAKNTVYLQMNSLKPEDTAVYYCAADVFIRDWEYYYWGQGTQVTVSS | low polyreactivity |
| QVQLVESGGGLVQAGGSLRLSCAASGSTFAGYAMGWYRQAPGKERELVAAISKSGGSTYYADSVKGRFTISRDNAKNTVYLQMNSLKPEDTAVYYCAARGGLPDGQGYYYWGQGTQVTVSS | high polyreactivity |
| QDQLVESGGGLVQAGGILRLSCAASGRTFLPNAMGWYRQSPGKEREFVASINGDGTTYYADSVKGRFTISRDNAKNTVYLQMNSLKPEDTAVYYCAKDRDFSSPPTESGFDFWGQGTQVTVSS | low polyreactivity |
| QVQLVESGGGLVQAGGSLRLSCAASGLTISRYAMGWYRQAPGKEREFVASISISSVDTYYADSVKGRFTISRDNAKNTVYLQMNSLKPEDTAVYYCAAAGRVGVTRYYSWGQGTQVTVSS | high polyreactivity |
| QVQLVESGGGLVQAGGSLRLRCAASGRIVYWYAMGWYIQAPGKERELVATINQSGSSTYYADSVKGRFTISRDNAKNTVYLQMNSLKPEDTAVYYCARARSHYAYYWWNAGTGLDYWGQGTQVTVSS | high polyreactivity |
| QVQLVESGGGLVQAGGSLRLSCAASGSSFSHYAMGWYRQAPGKVRELVAGISVRGGSTYYADSVKGRFTISRDNAKNTVDLQMNSLKPEDTAVYYCAIGYAKYYRTYYYWGQGTQVTVSS | high polyreactivity |
| QVQLVESGGGLVQAGGSLSLSCAASGRTFLYNAMGWYRQAPGKERELVAGITQSGSSTYYADSVKGRFTISRDNAKNTVYLQMNSMKPEDTAVYYCAKVLYRRGYKFDYWGQGTQVTVSS | low polyreactivity |

| Sequence | polyreactivity (PSR sort gate) |
| --- | --- |
| QVQLVESVGGLVQAGGSLRLSCAASGFTFTRYAMGWYRQAPGKERELVAAISSGGDTYYADSVKGRFTISRDNAKNTVYLQMNSLKPEDTAVYYCAADQSSLDYGNDYWGQGTQVTVSS | low polyreactivity |
| QVQLVESGGGLVQAGGSLRLSCAASGITFYTYAMGWYRQAPGKERELVAAITNGGNTSYADSVKGRFTISRDNAKNTVYLQMNSLKPEDTAVYYCAAVVTLPIWGNWYYVRYGYWGQGTQVTVSS | low polyreactivity |
| QVQLVESGGGLVQAGGSLRLSCAASGRIFYYYAMGWYRPAPGKERELVAAINRDGGRTYYADSVKGRFTISRDNAKNTVYLQMNSLKPEDTAVYYCAASYGYVYTTSLDYWGQGTQVTVSS | low polyreactivity |
| QVQLVESGGGLVQAGGSLRLSCAASGRTFVRYAMGWYRQAHGKERELVAAIDSSGGRTYYADSVKGRFTISRDNAKNTVYLQMNSLKPEDTAVYYCNARRLASYRGYSWGQGTQVTVSS | high polyreactivity |
| QVQLVESGGGLVQAGGSLRLSCAAYGRIFLLYAMGWYRQAPGKERELVAGISIGGSTNYADSVKGRFTISRDNAKNTVYVQMNSLKPEDTAVYYCNAKRYFASRKNGYYYWGQGTQVTVSS | high polyreactivity |
| QVQLVESGGGLVQAGGSLRLSCAASGSIIYAYAMGWYRQAPGKERELVAGIRDGGSTYYADSVKCRFTISRDNAKNTVYLQMNSLKPEDTAVYYCAAGPRIRDDYWGQGTQVTVSS | low polyreactivity |
| QVQLVESGGGLVQAGGSLRLSCAASGSILYISARGWYRQAPGKERELVASINSGASTNYADSVKGRFTISRDNAKNTVYLQMNSLKPEDTAVYYCAKSIVNPPHGFKDFDYWGQGTQVTLSS | low polyreactivity |
| QVQLVESGGGLVQAGGSLRLSCAASGRTFGYYAMGWYRQAPGIERELVATITWGDGTTYYADSVKGRFTFSRDNAKNTVYLQMNILKPEDTAVYYCAVDRSSWWWDDYRYDYWGQGTQVTVSS | low polyreactivity |
| QVQLVESGGGLVQAGGSLRLSCAASRSTFFHYAMGWNRQAPGKERELVAAISSDGITNYADSVKGRFTISRDNAKNTVYLQMNILIPEDTAVYYCNAETVSTVGLGYWGQGTQVTVSS | low polyreactivity |
| QVQLVESGGGLVQSGGSLRLSCAASGSIFGYYAMGWYRPAPGKERELVAGITNSGDTNYADSVKGRFTISRDNAKNTVYLQMNSLKPEDTAVYYCAAESWAALYGMDYWGQGTQVTVSS | low polyreactivity |
| QVQLVESGGLLVQAGGILRLSCAASGITFQYYAMGWSRQAPGKERELVAANTSSGVSTYYADSVKGRFTISRDNAKNTVYFQMNSLKPEDTAVYYCNTVVRGWSSSADDYWVQGTQVTVSS | low polyreactivity |
| QVQLVESGGGLVQAGGSLRLSCDASGSTFSYYAMGWYRQAPGKERDLVAAISSSGVRTYYADSVKGRFTISRDNAKNTVYLQMNSQKPEDTAVYYCAAGSRRGWLYRNRLWADYDYWGQGTQVTVSS | high polyreactivity |
| QVQLVESGGRLVQAGGSLRLSCAASGSTFGWYTMGWYRQAPGKERELVAAITSRGTRTSYADSVKARFTISRDNAKNTVYLQMNSLKPEDTAVYYCAARVFRGLGEYYWGQGTQVTVSS | high polyreactivity |
| QVQLVESGGCLVQAGGSLRLSCAASGRTIRVYAMGWYRQAPGKARELVASITRAGGTYADSVKGRFTISRDIAKNPDYLQMNSLKPEDTAVYFCNARWQRSTGGRQRYDYWGQGTQVTVSS | high polyreactivity |
| QGQLVESGGGLVQAGGRLRLSCAASGSIFRAYAMGWYRQAPGKERELVADISRSGGSTYYADSVKGRFTISRDNAKNTVYLQMNSLKPEDTAVYYCYAPVGWSVEARVSRGYEDQYDYWGQGSQVTVSS | low polyreactivity |
| QVQLVESGGGLVQAGGSLRLSCAASGFIFDAYALGWYRQAPGKERELVAAITRGNTYYADSVKGRFTISRDNAKNTVYLQMNSLKPEDTAVYYCAARYWQSYRSQVTHSSTLDYWGQGTQVTVSS | low polyreactivity |
| QVQLVESGGGLVQAGGSLRLSCAASGSTFYKNAMGWYIQAPGKERELVAAISGSGGRTYYADSVKGRFTISRDTAKNTVYLQMNSLKPEDTAVYYCNAARAYYSLYYGLDYWGQGTQVTVSS | high polyreactivity |
| QVQLVESGGGLVQAGGSLRLSCAASGRIFRGYAMGWYRQPPGTERELVAAITKRGGSTYYADSVKGRFTISRDNEKNTVSLQMNSLKPEDTAVYYCAAYLPGWELREYGYWGQGTQVTVSS | high polyreactivity |
| QVQLVESGGGLVQAGGSLRLSCAASGSIFQYYPMGWYRQAPGKERELVAAINSGGRTNYADSVKGRFTISRDNAKNTVYLQMNSLKPEDTAVYYCAKRLSTRASFGEEDSWGQGTQVTVSS | low polyreactivity |
| QVQLVESGVGLVQAGGSLRLSCAASGRTFGVYAMGWYRQAPGKESTYYADSVKGRFTISRDNAKNTVYLQMNSLKPEDTAVYYCNARGGFGYITMDYWGQGTQVTVSS | low polyreactivity |
| QVQLVESGGGLVQAGGSLRLSCAASGSTFYIYGMGWYRQAPGKERELVAAISSSGGRTNYADSVKGRFTISRDNAKNTVYLQMNSLKPEDTAVYYCAARRWQGYAGWYDYWGQGTQVTVSS | high polyreactivity |
